{"source": "patent US20160319321", "key": {"[1]": {"target": "T1, Lys(Dnp)-FDEGDR-HAEGT-Lys(Abz)amide", "T1 chain": "KFDEGDRHAEGTK"}, "[2]": {"target": "T2, Lys(Dnp)-EDGDR-EGTFT-Lys(Abz)amide", "T2 chain": "KEDGDREGTFTK"}, "[3]": {"target": "T3, Lys(Dnp)-ADEGDR-HAEGT-Lys(Abz)amide", "T3 chain": "KADEGDRHAEGTK"}, "[4]": {"target": "T4, DVKPGEPLYDEGDR-[Arg34]GLP-1(9-37)", "T4 chain": "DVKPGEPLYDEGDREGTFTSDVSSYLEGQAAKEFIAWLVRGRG"}, "[5]": {"target": "T5, Lys(Dnp)-DSGDR-EGTFT-Lys(Abz)amide", "T5 chain": "KDSGDREGTFTK"}, "[6]": {"target": "T6, DVKPGQPLADEGDR-[Arg34]GLP-1(9-37)", "T6 chain": "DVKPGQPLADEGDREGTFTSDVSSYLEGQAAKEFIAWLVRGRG"}, "[7]": {"target": "T7, DVKEGQPLYDDDDK-[Arg34]GLP-1(9-37)", "T7 chain": "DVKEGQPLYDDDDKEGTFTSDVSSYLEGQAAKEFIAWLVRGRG"}, "[8]": {"target": "T8, Lys(Dnp)-EWGDR-HAEGT-Lys(Abz)amide", "T8 chain": "KEWGDRHAEGTK"}, "[9]": {"target": "T9, Lys(Dnp)-MDEGDR-HAEGT-Lys(Abz)amide", "T9 chain": "KMDEGDRHAEGTK"}, "[10]": {"target": "T10, Lys(Dnp)-ESGDR-HAEGT-Lys(Abz)amide", "T10 chain": "KESGDRHAEGTK"}, "[11]": {"target": "T11, Lys(Dnp)-EYGDR-HAEGT-Lys(Abz)amide", "T11 chain": "KEYGDRHAEGTK"}, "[12]": {"target": "T12, Lys(Dnp)-DYGDR-EGTFT-Lys(Abz)amide", "T12 chain": "KDYGDREGTFTK"}, "[13]": {"target": "T13, Lys(Dnp)-DEGDR-HGEGT-Lys(Abz)amide", "T13 chain": "KDEGDRHGEGTK"}, "[14]": {"target": "T14, Lys(Dnp)-DAGDR-HAEGT-Lys(Abz)amide", "T14 chain": "KDAGDRHAEGTK"}, "[15]": {"target": "T15, Lys(Dnp)-DGGDR-HGEGT-Lys(Abz)amide", "T15 chain": "KDGGDRHGEGTK"}, "[16]": {"target": "T16, Lys(Dnp)-DEGDR-EGTFT-Lys(Abz)amide", "T16 chain": "KDEGDREGTFTK"}, "[17]": {"target": "T17, Lys(Dnp)-EQGDR-HGEGT-Lys(Abz)amide", "T17 chain": "KEQGDRHGEGTK"}, "[18]": {"target": "T18, Lys(Dnp)-DEGDR-HSQGT-Lys(Abz)amide", "T18 chain": "KDEGDRHSQGTK"}, "[19]": {"target": "T19, Lys(Dnp)-LEGDR-HAEGT-Lys(Abz)amide", "T19 chain": "KLEGDRHAEGTK"}, "[20]": {"target": "T20, Lys(Dnp)-IYGDRHAEGT-Lys(Abz)amide", "T20 chain": "KIYGDRHAEGTK"}, "[21]": {"target": "T21, Lys(Dnp)-EGGDR-HGEGT-Lys(Abz)amide", "T21 chain": "KEGGDRHGEGTK"}, "[22]": {"target": "T22, Lys(Dnp)-DWGDR-EGTFT-Lys(Abz)amide", "T22 chain": "KDWGDREGTFTK"}, "[23]": {"target": "T23, Lys(Dnp)-DHGDR-EGTFT-Lys(Abz)amide", "T23 chain": "KDHGDREGTFTK"}, "[24]": {"target": "T24, Lys(Dnp)-EYGDR-EGTFT-Lys(Abz)amide", "T24 chain": "KEYGDREGTFTK"}, "[25]": {"target": "T25, Lys(Dnp)-YEGDR-HAEGT-Lys(Abz)amide", "T25 chain": "KYEGDRHAEGTK"}, "[26]": {"target": "T26, Lys(Dnp)-DDGDR-HGEGT-Lys(Abz)amide", "T26 chain": "KDDGDRHGEGTK"}, "[27]": {"target": "T27, Lys(Dnp)-EHGDR-EGTFT-Lys(Abz)amide", "T27 chain": "KEHGDREGTFTK"}, "[28]": {"target": "T28, Lys(Dnp)-DSGDR-QGTFT-Lys(Abz)amide", "T28 chain": "KDSGDRQGTFTK"}, "[29]": {"target": "T29, Lys(Dnp)-DDGDR-HGTFT-Lys(Abz)amide", "T29 chain": "KDDGDRHGTFTK"}, "[30]": {"target": "T30, Lys(Dnp)-DGGDR-HAEGT-Lys(Abz)amide", "T30 chain": "KDGGDRHAEGTK"}, "[31]": {"target": "T31, Lys(Dnp)-EQGDR-EGTFT-Lys(Abz)amide", "T31 chain": "KEQGDREGTFTK"}, "[32]": {"target": "T32, Lys(Dnp)-ELGDR-HGEGT-Lys(Abz)amide", "T32 chain": "KELGDRHGEGTK"}, "[33]": {"target": "T33, Lys(Dnp)-DDGDR-HAEGT-Lys(Abz)amide", "T33 chain": "KDDGDRHAEGTK"}, "[34]": {"target": "T34, Lys(Dnp)-DDGDR-QGTFT-Lys(Abz)amide", "T34 chain": "KDDGDRQGTFTK"}, "[35]": {"target": "T35, Lys(Dnp)-ESGDR-EGTFT-Lys(Abz)amide", "T35 chain": "KESGDREGTFTK"}, "[36]": {"target": "T36, Lys(Dnp)-VIGDRHAEGT-Lys(Abz)amide", "T36 chain": "KVIGDRHAEGTK"}, "[37]": {"target": "T37, Lys(Dnp)-EQGDR-HAEGT-Lys(Abz)amide", "T37 chain": "KEQGDRHAEGTK"}, "[38]": {"target": "T38, DVEPGQPLYDEGDR-[Arg34]GLP-1(9-37)", "T38 chain": "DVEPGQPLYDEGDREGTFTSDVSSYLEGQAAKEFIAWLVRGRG"}, "[39]": {"target": "T39, Lys(Dnp)-DSGDR-HSQGT-Lys(Abz)amide", "T39 chain": "KDSGDRHSQGTK"}, "[40]": {"target": "T40, Lys(Dnp)-EGGDR-HAEGT-Lys(Abz)amide", "T40 chain": "KEGGDRHAEGTK"}, "[41]": {"target": "T41, DVKPGQELYDEGDR-[Arg34]GLP-1(9-37)", "T41 chain": "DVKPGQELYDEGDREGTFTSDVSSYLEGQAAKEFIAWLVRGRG"}}, "note": "Several values for one entry are separate records, joined by “and”; a condition that tells them apart may be missing. Equal entries are not always repeated."}
{"protein": "bovine Enterokinase light chain variant (C112A, L134K, I135K) (protein) IVGGSDSREGAWPWVVALYFDDQQVCGASLVSRDWLVSAAHCVYGRNMEPSKWKAVLGLHMASNLTSPQIETRLIDQIVINPHYNKRRKNNDIAMMHLEMKVNYTDYIQPIALPEENQVFPPGRICSIAGWGAKKYQGSTADVLQEADVPLLSNEKCQQQMPEYNITENMVCAGYEAGGVDSCQGDSGGPLMCQENNRWLLAGVTSFGYQCALPNRPGVYARVPRFTEWIQSFLH", "values": [{"measurement": "Activity (%)", "setting": "[1]", "value": 200, "unit": "%"}, {"measurement": "Activity (%)", "setting": "[2]", "value": 505, "unit": "%"}, {"measurement": "Activity (%)", "setting": "[3]", "value": 100, "unit": "%"}, {"measurement": "Activity (%)", "setting": "[4]", "value": 895, "unit": "%"}, {"measurement": "Activity (%)", "setting": "[5]", "value": 342, "unit": "%"}, {"measurement": "Activity (%)", "setting": "[6]", "value": 476, "unit": "%"}, {"measurement": "Activity (%)", "setting": "[7]", "value": 178, "unit": "%"}, {"measurement": "Activity (%)", "setting": "[8]", "value": 456, "unit": "%"}, {"measurement": "Activity (%)", "setting": "[9]", "value": 209, "unit": "%"}, {"measurement": "Activity (%)", "setting": "[10]", "value": 557, "unit": "%"}, {"measurement": "Activity (%)", "setting": "[11]", "value": 539, "unit": "%"}, {"measurement": "Activity (%)", "setting": "[12]", "value": 373, "unit": "%"}, {"measurement": "Activity (%)", "setting": "[13]", "value": 736, "unit": "%"}, {"measurement": "Activity (%)", "setting": "[14]", "value": 496, "unit": "%"}, {"measurement": "Activity (%)", "setting": "[15]", "value": 301, "unit": "%"}, {"measurement": "Activity (%)", "setting": "[16]", "value": 890, "unit": "%"}, {"measurement": "Activity (%)", "setting": "[17]", "value": 432, "unit": "%"}, {"measurement": "Activity (%)", "setting": "[18]", "value": 621, "unit": "%"}, {"measurement": "Activity (%)", "setting": "[19]", "value": 398, "unit": "%"}, {"measurement": "Activity (%)", "setting": "[20]", "value": 117, "unit": "%"}, {"measurement": "Activity (%)", "setting": "[21]", "value": 279, "unit": "%"}, {"measurement": "Activity (%)", "setting": "[22]", "value": 410, "unit": "%"}, {"measurement": "Activity (%)", "setting": "[23]", "value": 398, "unit": "%"}, {"measurement": "Activity (%)", "setting": "[24]", "value": 353, "unit": "%"}, {"measurement": "Activity (%)", "setting": "[25]", "value": 377, "unit": "%"}, {"measurement": "Activity (%)", "setting": "[26]", "value": 439, "unit": "%"}, {"measurement": "Activity (%)", "setting": "[27]", "value": 339, "unit": "%"}, {"measurement": "Activity (%)", "setting": "[28]", "value": 125, "unit": "%"}, {"measurement": "Activity (%)", "setting": "[29]", "value": 402, "unit": "%"}, {"measurement": "Activity (%)", "setting": "[30]", "value": 431, "unit": "%"}, {"measurement": "Activity (%)", "setting": "[31]", "value": 442, "unit": "%"}, {"measurement": "Activity (%)", "setting": "[32]", "value": 502, "unit": "%"}, {"measurement": "Activity (%)", "setting": "[33]", "value": "604% and 601%"}, {"measurement": "Activity (%)", "setting": "[34]", "value": 338, "unit": "%"}, {"measurement": "Activity (%)", "setting": "[35]", "value": 362, "unit": "%"}, {"measurement": "Activity (%)", "setting": "[36]", "value": 68, "unit": "%"}, {"measurement": "Activity (%)", "setting": "[37]", "value": 808, "unit": "%"}, {"measurement": "Activity (%)", "setting": "[38]", "value": 951, "unit": "%"}, {"measurement": "Activity (%)", "setting": "[39]", "value": 200, "unit": "%"}, {"measurement": "Activity (%)", "setting": "[40]", "value": 586, "unit": "%"}, {"measurement": "Activity (%)", "setting": "[41]", "value": 1040, "unit": "%"}]}
